Values joined by “and” are separate entries in the source; they are usually repeats but may differ in a detail not shown here. Equal entries are not always repeated.
Test system: MBP-C125Swe
Assay: β-Secretase assay: cleavage of substrate MBP-C125Swe, ELISA read-out
Type: biochemical
Details: 0.02 μL BACE, MBP-C125Swe 220 nM, one hour, 37° C., pH 4.5; for Cleavage Product: group mean of 6 samples; for Activity / Substrate Conversion: group mean
Text: Peptide substrate MBP-C125Swe was used for all assays. MBP-C125Swe is a bacterial fusion protein containing maltose binding protein MBP fused to the C-terminal 125 amino acids of the Swedish variant (Lys670Asn, Met671Leu double mutation) of APP. Sinha et al (1999). The C-terminal 125 amino acids were cloned into the expression vector pMALc (New England Biolabs) and transfected into E. coli. The fusion proteins were induced and solubilized by sonication of the pelleted bacteria. The proteins were purified by affinity chromatography on amylose-agarose, made up to 3 M guanidine, and stored in 10 mM Tris, pH 7.5, 0.2% Triton X-100, and 0.15 M guanidine.
All digests were done with 0.02 μL BACE (Δ3, 0.69 μM; Δ2,3 0.77 μM; wild type 0.66 μM) at 37° C. in a total volume of 50 μL 0.06% Triton X-100 and 20 mM sodium acetate, pH 4.5. Samples were incubated with MBP-C125Swe substrate (10 μg/mL, 220 nM) for one hour. Digests were assayed in an ELISA assay, capturing with antibody to MBP and detecting with biotinylated Sw192, a neo-epitope specific antibody recognizing the free C-terminal leucine of the N-terminal product of β-secretase cleavage of the APPSwe sequence. See Seubert. P. et al. Nature 361:260-263 (1993), and Knops, J. et al. J. Biol. Chem. 270:2419-2422 (1995). Product was allowed to bind for 24 hours at 4° C., then quantitated with streptavidin-horse radish peroxidase. Biotinylated peptide corresponding to the N-terminal cleavage product was synthesized and used as a standard.
These values were converted from the above data by the following equation: nM product/hr (ng enzyme)×45 ng enzyme/pm enz× 1/220 nM substrate×⅓,660 sec/hr×50,000 nL/reaction.

Row | Molecule | Cleavage Product | Activity | Substrate Conversion
1 | delta 2, 3: BACE variant S174I and N223A (SEQ ID NO:3), made on the 452Flag soluble truncated BACE template (protein, Flag tag; Human BACE with serine to isoleucine (S174I) and asparagine to alanine (N223A) mutations.) ETDEEPEEPGRRGSFVEMVDNLRGKSGQGYYVEMTVGSPPQTLNILVDTGSSNFAVGAAPHPFLHRYYQRQLSSTYRDLRKGVYVPYTQGKWEGELGTDLVSIPHGPNVTVRANIAAITESDKFFINGINWEGILGLAYAEIARPDDSLEPFFDSLVKQTHVPNLFSLQLCGAGFPLAQSEVLASVGGSMIIGGIDHSLYTGSLWYTPIRREWYYEVIIVRVEINGQDLKMDCKEYNYDKSIVDSGTTNLRLPKKVFEAAVKSIKAASSTEKFPDGFWLGEQLVCWQAGTTPWNIFPVISLYLMGEVTNQSFRITILPQQYLRPVEDVATSQDDCYKFAISQSSTGTVMGAVIMEGFYVVFDRARKRIGFAVSACHVHDEFRTAAVEGPFVTLDMEDCGYNIPQTD | 109 pM and 108 pM | 15,753 pM/h/ng enz and 15,662 pM/h/ng enz | 5.19% and 5.16%
2 | wild type: fully glycosylated soluble BACE truncated after residue 451 with Flag sequence (protein, left off: small tags and cut ends) TQHGIRLPLRSGLGGAPLGLRLPRETDEEPEEPGRRGSFVEMVDNLRGKSGQGYYVEMTVGSPPQTLNILVDTGSSNFAVGAAPHPFLHRYYQRQLSSTYRDLRKGVYVPYTQGKWEGELGTDLVSIPHGPNVTVRANIAAITESDKFFINGSNWEGILGLAYAEIARPDDSLEPFFDSLVKQTHVPNLFSLQLCGAGFPLNQSEVLASVGGSMIIGGIDHSLYTGSLWYTPIRREWYYEVIIVRVEINGQDLKMDCKEYNYDKSIVDSGTTNLRLPKKVFEAAVKSIKAASSTEKFPDGFWLGEQLVCWQAGTTPWNIFPVISLYLMGEVTNQSFRITILPQQYLRPVEDVATSQDDCYKFAISQSSTGTVMGAVIMEGFYVVFDRARKRIGFAVSACHVHDEFRTAAVEGPFVTLDMEDCGYNIPQTD | 85 pM and 90 pM | 14,308 pM/h/ng enz and 15,177 pM/h/ng enz | 4.05% and 4.30%
3 | delta 3: BACE variant N223A (SEQ ID NO:2), made on the 452Flag soluble truncated BACE template (protein, Flag tag; Human BACE with asparagine to alanine (N223A) mutation.) ETDEEPEEPGRRGSFVEMVDNLRGKSGQGYYVEMTVGSPPQTLNILVDTGSSNFAVGAAPHPFLHRYYQRQLSSTYRDLRKGVYVPYTQGKWEGELGTDLVSIPHGPNVTVRANIAAITESDKFFINGSNWEGILGLAYAEIARPDDSLEPFFDSLVKQTHVPNLFSLQLCGAGFPLAQSEVLASVGGSMIIGGIDHSLYTGSLWYTPIRREWYYEVIIVRVEINGQDLKMDCKEYNYDKSIVDSGTTNLRLPKKVFEAAVKSIKAASSTEKFPDGFWLGEQLVCWQAGTTPWNIFPVISLYLMGEVTNQSFRITILPQQYLRPVEDVATSQDDCYKFAISQSSTGTVMGAVIMEGFYVVFDRARKRIGFAVSACHVHDEFRTAAVEGPFVTLDMEDCGYNIPQTD | 119 pM and 126 pM | 19,071 pM/h/ng enz and 20,173 pM/h/ng enz | 5.68% and 6.01%
